The source of these data is publication PMC12516131.

For test [1], the target named is GMPCPP- and paclitaxel-stabilised microtubules (porcine brain tubulin) (porcine (brain tubulin)). In words: single-molecule TIRF microscopy on microtubules; 2 nM eGFP–POK2^2083–2771 in PEM20-based Reaction Buffer on unlabelled stabilised microtubules (IRM); kymographs, landing rate and interaction times of diffusive particles.
For test [2] the target is unchanged. In words: TIRF microscopy microtubule binding assay; 10% rhodamine-labelled GMPCPP/paclitaxel microtubules immobilised on glass by anti-β-tubulin antibody; eGFP–POK2 fragment at increasing concentrations in PEM20-based Reaction Buffer (20 mM K-PIPES pH 6.9, 1 mM MgCl2, 1 mM EGTA, casein, 1 mM ATP, 5 mM DTT); intensity per microtubule length; Hill–Langmuir fit.
Test [3] has as its target eGFP–POK2^2083–2440 (Arabidopsis thaliana). In words: native gel or EMSA; blue native PAGE, 4–12% Tris-Glycine gels, 100 ng of each protein per lane, anti-GFP western blotting and silver staining; oligomeric state in solution. Background: In EMSA bound probe runs differently from free probe, usually more slowly.

In test [1], “eGFP–POK2^2083–2771–8×His (domain or fragment)” displayed an interaction time (subpopulation 1) of 0.9 s, an interaction time (subpopulation 2) of 6 s, an interaction time (subpopulation 3) of 43 s and a landing rate at 2 nM of 0.16 µm^−1 min^−1. Also, the dissociation constant Kd in test [2] came out at 0.106 µM.
For the substance “eGFP–POK2^2083–2440 (domain or fragment)”, the stoichiometry N in test [3] was 2.

What is called Kd is the concentration at which binding is half-saturated. The low end stands for a tighter complex, the high end for a looser complex. The stoichiometry N is the number of molecules, sites or subunits per partner or assembly.
